According to article PMC8233224, “Crystal structure of a homotrimeric verrucomicrobial exo-β-1,4-mannosidase active in the hindgut of the wood-feeding termite Reticulitermes flavipes” (Journal of Structural Biology: X, 2021):
“And” between values parts separate entries of the source, which are not always exact repeats. Identical values can stand only once.

Tests used:
[1] = molecular target: exo-β-1,4-mannosidase from Opitutaceae bacterium strain TAV5 (Op5Man5) (Opitutaceae bacterium strain TAV5); assay: cross-linking; glutaraldehyde 0.4% w/v, protein 0.2 mg/ml, 37 °C, 0 to 60 min, SDS-PAGE (15%)
[2] = molecular target: exo-β-1,4-mannosidase from Opitutaceae bacterium strain TAV5 (Op5Man5) (Opitutaceae bacterium strain TAV5); assay: SEC; Superdex 200 10/300 GL, 20 mM HEPES pH 7.5 with 300 mM NaCl, 4 °C, standard curve of reference proteins
[3] = molecular target: exo-β-1,4-mannosidase from Opitutaceae bacterium strain TAV5 (Op5Man5) (Opitutaceae bacterium strain TAV5); assay: crystal structure; crystals from 0.1 M phosphorus citrate pH 4.2, 30% ethanol, 5% PEG 1000; space group P212121; 2.2 Å
[4] = molecular target: exo-β-1,4-mannosidase from Opitutaceae bacterium strain TAV5 (Op5Man5) (Opitutaceae bacterium strain TAV5); assay: SEC; Superdex 200 10/300 GL, 20 mM Tris-HCl pH 8.0 and 8.5 with 300 mM NaCl, 4 °C, standard curve of reference proteins
[5] = molecular target: exo-β-1,4-mannosidase from Opitutaceae bacterium strain TAV5 (Op5Man5) (Opitutaceae bacterium strain TAV5); assay: cryo-EM structure; single particle cryo-EM at pH 7.5 of pooled SEC fractions with the trimeric species, 0.12 mg/ml; 3.7 Å map
[6] = molecular target: exo-β-1,4-mannosidase from Opitutaceae bacterium strain TAV5 (Op5Man5) (Opitutaceae bacterium strain TAV5); assay: SEC; Superdex 200 10/300 GL, 20 mM buffer with 300 mM NaCl, pH 5.5-6.5 (sodium acetate pH 5.5; MES pH 6.0 and 6.5), 4 °C, standard curve of reference proteins
[7] = system: T1, O=[N+]([O-])c1ccc(O[C@@H]2O[C@H](CO)[C@@H](O)[C@H](O)[C@@H]2O)cc1; assay: purified protein; assay type: biochemical, Opitutaceae bacterium; conditions: 50 mM sodium phosphate pH 6.0, 40 °C, 10 min, apparent
T1 construct: full length, 594 residues, no secretion signal; C-terminal non-cleavable His6 tag (pNIC-CH2), E. coli BL21(DE3) T1R; synthetic gene; ESI-MS 66824 g/mol; homotrimer ~200 kDa; N-terminus MTIDSSGY from primer

| Substance | stoichiometry N [1] | stoichiometry N [2] | stoichiometry N [3] | stoichiometry N [4] | stoichiometry N [5] | stoichiometry N [6] | Km [7] [mM] | kcat [7] [s⁻¹] | kcat/Km [7] [M⁻¹ s⁻¹] |
| --- | --- | --- | --- | --- | --- | --- | --- | --- | --- |
| exo-β-1,4-mannosidase from Opitutaceae bacterium strain TAV5 (Op5Man5) (enzyme) | 3 and 6 | 3 and 6 | 3 | 3 | 3 | 3 | – | – | – |
| Op5Man5 (Opitutaceae bacterium) | – | – | – | – | – | – | 1.0 ± 0.13 | 239 ± 7.7 | 239000 ± 7700 |
